# B1: PAX-interacting protein 1 (Homo sapiens), Q6ZW49-1 (parent)
# chain: MVFLQNHVRFFLESLPAFLRVLIQAGALCWSLPELSQGEVGKGACPAEVGKHRDHLPSSDPVLMQAEASVVMCWVSSEDRSALWALVTFYGGDCQLTLNKKCTHLIVPEPKGEKYECALKRASIKIVTPDWVLDCVSEKTKKDEAFYHPRLIIYEEEEEEEEEEEEVENEEQDSQNEGSTDEKSSPASSQEGSPSGDQQFSPKSNTEKSKGELMFDDSSDSSPEKQERNLNWTPAEVPQLAAAKRRLPQGKEPGLINLCANVPPVPGNILPPEVRGNLMAAGQNLQSSERSEMIATWSPAVRTLRNITNNADIQQMNRPSNVAHILQTLSAPTKNLEQQVNHSQQGHTNANAVLFSQVKVTPETHMLQQQQQAQQQQQQHPVLHLQPQQIMQLQQQQQQQISQQPYPQQPPHPFSQQQQQQQQAHPHQFSQQQLQFPQQQLHPPQQLHRPQQQLQPFQQQHALQQQFHQLQQHQLQQQQLAQLQQQHSLLQQQQQQQIQQQQLQRMHQQQQQQQMQSQTAPHLSQTSQALQHQVPPQQPPQQQQQQQPPPSPQQHQLFGHDPAVEIPEEGFLLGCVFAIADYPEQMSDKQLLATWKRIIQAHGGTVDPTFTSRCTHLLCESQVSSAYAQAIRERKRCVTAHWLNTVLKKKKMVPPHRALHFPVAFPPGGKPCSQHIISVTGFVDSDRDDLKLMAYLAGAKYTGYLCRSNTVLICKEPTGLKYEKAKEWRIPCVNAQWLGDILLGNFEALRQIQYSRYTAFSLQDPFAPTQHLVLNLLDAWRVPLKVSAELLMSIRLPPKLKQNEVANVQPSSKRARIEDVPPPTKKLTPELTPFVLFTGFEPVQVQQYIKKLYILGGEVAESAQKCTHLIASKVTRTVKFLTAISVVKHIVTPEWLEECFRCQKFIDEQNYILRDAEAEVLFSFSLEESLKRAHVSPLFKAKYFYITPGICPSLSTMKAIVECAGGKVLSKQPSFRKLMEHKQNSSLSEIILISCENDLHLCREYFARGIDVHNAEFVLTGVLTQTLDYESYKFN
# Variants of: B1
# Conditions: with h2ax_human H2AX
row,effect of a mutation on the interaction,Variant
1,decreasing interaction,E1016A

# Variants of: B1
# Conditions: with h2ax_human H2AX
# Remark: another data set of the same source
row,effect of a mutation on the interaction,Variant
1,disrupting interaction,R876D

# Variants of: B1
# Conditions: with h2ax_human H2AX
# Remark: another data set of the same source
row,effect of a mutation on the interaction,Variant
1,increasing interaction,T1020A

# Variants of: B1
# Conditions: with h2ax_human H2AX
# Remark: another data set of the same source
row,effect of a mutation on the interaction,Variant
1,disrupting interaction,T838A

# Variants of: B1
# Conditions: with h2ax_human H2AX
# Remark: another data set of the same source
row,effect of a mutation on the interaction,Variant
1,disrupting interaction,K879M

# From IntAct's records for PubMed 22064073
